# Tested on: MS2 coat protein
# Assay: apparent KD of MS2 coat protein, switch OFF state (with FMN for OFF switches, without FMN for ON switches); designed switch direction (-1 OFF switch, 1 ON switch): 1; higher = weaker reporter binding
# Details: FMN input: 0 or 200 uM; Eterna round: R93 (includes R88 designs)
# Method in brief: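 Illumina sequencing clusters were used for on-chip transcription of designed RNA switches. Titration with SNAP-549-labelled MS2 coat protein followed, in twofold steps from 0.7 or 1.5 nM to 3 µM in 100 mM Tris-HCl pH 7.5, 80 mM KCl, 4 mM MgCl2, without or with constant ligand. Apparent KD is each design's median of fits to normalised cluster binding curves.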
row,Sequence,apparent KD of MS2 coat protein
1,AACCGCGCUAUACAGGAUAUCACAAUAUCGACAUGAGGAUCACCCAUGUGACUGGCACCAGUCGGUGAGAAGGGUGAAGUGCGGC [Tilemage],238 nM
2,GUGAGACAUGAGGAUCACCCAUGUACGCGUCAGCAAGGAUAUGGGAAUAAAAGACAGAGACCAGAAGGUGCUGUUG [Arzaerri],67.5 nM
3,AUAAAACAUGAGGAUCACCCAUGUAGCUAAAGCACAGGAUAUAGGAGUCCGAGCAGACAUCUAGAAGGGUGGAAAA [Veeslelein],88.6 nM
4,CGGAGACAUGAGGAUCACCCAUGUGAGAAGAGGCGAGGAUAUCGAAAGAAAGAAGAGAAACGAGAAGGCGCGAGAC [salish99-SS1-077],26.7 nM
5,AGAAAUAAAAGAGAGGAUAUCCAAAAGAAAACAUGAGGAUCACCCAUGUACACGAAAGUGAAAUGGGAGAAGGCUCAAAAUAAAG [80% More Helter Skelter 2 + Hairpin],536 nM
6,AAAAAACAUGAGGAUCACCCAUGUCGAAAGACAUGAGGAUAUGUACAGACUUCGGUCUGUACAGAAGGCAUGUAAA [SS1 - 1016],813 nM
7,ACUACACAUGAGGAUCACCCAUGUCAGGCCGGACUAGGAUAUUAUAAACCAGAGUAAAAAUAAGAAGGAGUAGGAA [JR_SS001_Sub310],61.3 nM
8,CGAAGACAUGAGGAUCACCCAUGUGGGAAUAUGGGAGGAUAUACAAAGACGAGAGUCAGAGUAGAAGGCCUAGGAA [salish99-ss1-104],56.6 nM
9,AAGAAACAUGAGGAUCACCCAUGUAGAAAUAUGGGAGGAUAUACGAAGACGAAAGUCAAAGUAGAAGGCCUAAGAA [Mat - Same State 1 - Eli mod - D105],82 nM
10,AUUCCAAAUAGUCAGGAUAUCAGGAGUAAGACAUGAGGAUCACCCAUGUACUUAGUAAAAGUAACUGAGAAGGGACAGGGUGUAA [JR_SS002_Sub406],24.2 nM
11,GCGGUGUAGGUACAGGAUAUGUUGCUCGUAACAUGAGGAUCACCCAUGUACCUAUGAGAUUAAAUGCAGAAGGGUGCACACCACG [Zaalaes],2.41 nM
12,"AAACCACAUGAGGAUCACCCAUGUAAAAAUAACGCAGGAUAUGGAAACACGAAAGUGAAACCAGAAGGGUGAAAAG [77%, Mat - Mod of Eli, 15]",33 nM
13,"AAAAUAAAAAGGUAGGAUAUGGGUAAGUCUACAUGAGGAUCACCCAUGUAAUAAAAAGAAAAAAACCAGAAGGACCAAAAUAAAA [72%, More Wateronthemoon, 11]",50.1 nM
14,UGUAGGAAGAGAGAGGAUAUCCAAAGGAAAACAUGAGGAUCACCCAUGUAAAAGGUAGGAAAUUGGGAGAAGGCUCAAGAGAGAG [salish99-ss2-082],52.7 nM
15,AAAAUACAUGAGGAUCACCCAUGUGAAAAUAUGGGAGGAUAUACCGAAAAAAAAAAAACGGUAGAAGGCCCUAAAA [SS! 1 MT 6],41.6 nM
16,AAAAAACAUGAGGAUCACCCAUGUAUGAUAACAUCAGGAUAUUGGCUUGACUAUGUCUUACAAGAAGGGAUGAAAA [Same State 1.3e (Same State 1 - Omei 2 )],48.6 nM
17,GAAAAACAUGAGGAUCACCCAUGUGAGAAUAUGGGAGGAUAUUCAAAGACGAGAGUCAAAGAAGAAGGCCUAAAAG [Mat - Same State 1 - Eli mod - 38],161 nM
18,GAAAAACAUGAGGAUCACCCAUGUAGAAAUAUGGGAGGAUAUACAAAGACGAAAGUCAAAGUAGAAGGCCUAAAAG [Mat - Same State 1 - Rerun of Eli mod - D1],69.3 nM
19,AAAGACAUAGUGCAGGAUAUGGUAAUAGUCACAUGAGGAUCACCCAUGUUCUUUUAUAAGAACGAUCAGAAGGGCGGUAAAAAAA [SameState2 Malc#13],666 nM
20,AAAAAAUAAAAAAAGGAUAUAAAUCCUAGAACAUGAGGAUCACCCAUGUACUAGGAAAAAAUAAAAAAGAAGGAAAAAUAAAAAA [SS2: MS2 19],17.3 nM
21,AAAUAACAUGAGGAUCACCCAUGUUACAACAUUACAGGAUAUGUGGGUGAAAAUAGCAUGACAGAAGGGUACUGUA [SameState1 Malc#34],393 nM
22,GAAAAACAUGAGGAUCACCCAUGUGUAAACACGGGAGGAUAUACGAAGACGUAAGUCAAAGUAGAAGGCCUAAAAG [Garnet 40],60.3 nM

row,Sequence,apparent KD of MS2 coat protein
1,AAGAAAGAAACAUAGGAUAUCAAGGAUAUAACAUGAGGAUCACCCAUGUAAAUACGAAAGUAUAAUGAGAAGGAUGGAUGAUCUUC [Meechl MS2 SS2],44.9 nM
2,CGAAAGGAGAGAGAGGAUAUCCAAAGGAAAACAUGAGGAUCACCCAUGUAGAAGGUAGGAGAUUGGGAGAAGGCUCAAGACAGAG [salish99-ss2-143(!!!!)],36.1 nM
3,GGAGCCGACACUGAGGAUAUUCAUAUUAAAACAUGAGGAUCACCCAUGUAGGCCAGAAGGCCUUGGGAGAAGGCAGGCCGGCUCG [Inxebi],256 nM
4,AUACUACAUGAGGAUCACCCAUGUUGAAAUAUGGAAGGAUAUACGUAGUAAAAUAACUACGUAGAAGGUCCAGAAA [SS1 MT 22],19.6 nM
5,CGCGGGCCCGGGCAGGAUAUCCGGCCUCGGACAUGAGGAUCACCCAUGUGGCCGAAAGGCCGGUGGGAGAAGGGCCCGGGCCCGC,23.1 nM
6,AUAUAUAUAAGGUAGGAUAUCCUAAAGUAAACAUGAGGAUCACCCAUGUAAAGAAAGAAACUCAUGGAGAAGGACCAUAUAUAUA,20.2 nM
7,"AGAAAUAAAUGAGAGGAUAUCCAAAAGAAAACAUGAGGAUCACCCAUGUAAAAGAAAAUAAAGUGGGAGAAGGCUCGAAAUAAAG [80%, More Helter Skelter 2]",43.5 nM
8,AAAAAACAUGAGGAUCACCCAUGUCUUUUGACAUGAGGAUAUGUACAGACUUCGGUCUGUACAGAAGGCAUGUAAA [SS1 - 1028],397 nM
9,AUAAGACAUGAGGAUCACCCAUGUAUAAGAGCAUGAGGAUAUAUGAAAAGUAAUAGGAGAAUAGAAGGCAUAGUUG [JR_SS001_Sub1220],92.4 nM
10,AACAAUCUAUCUGAGGAUAUGUGUCAAAAGACAUGAGGAUCACCCAUGUAAAAACAUGAAAAGACACAGAAGGCAGAUAGAUUGA [SS2: 1153],44.2 nM
11,CUAAUUGCAUAUUAGGAUAUACACUGGGUGACAUGAGGAUCACCCAUGUAAAAGCACACUCGGUAGUAGAAGGAGUGUGCAAGUC [Iserso],19.1 nM
12,AAUACACAUGAGGAUCACCCAUGUAGAAAGAAGGCAGGAUAUCAGAUCCACAUGUGAUAAUGAGAAGGGCCAAUAU [SS 1 Tesla 10],171 nM
13,AAAAAACAUGAGGAUCACCCAUGUAAAAAAAACACAGGAUAUCCAAAAAAAAAAAAAAAAGGAGAAGGGUGAAAAA [Nob - Jieux - Same State 1],48.3 nM
14,AAUAAUUAUAUCGAGGAUAUCGGUAAUAAGACAUGAGGAUCACCCAUGUAAUAAGGUUAAAUAAACGAGAAGGCGAAGGGUGAAA [JR_SS002_Sub006],49.2 nM
15,GAAAUAAAAACACAGGAUAUCCAAAAGAAAACAUGAGGAUCACCCAUGUAAAGAAAAUAAAAAUGGGAGAAGGGUGAAAAUAAAA [Mat - Same State 2 - JL mod - D26],41.3 nM
16,GAAAAACAUGAGGAUCACCCAUGUAAGAUAAACACAGGAUAUGCGAAAAUAAACAAAGAAGCAGAAGGGUGAAGAA [Mat - Same State 1 - Tesla mod - 72],80.3 nM
17,UAUAGACAUGAGGAUCACCCAUGUAGAAUUAUGGGAGGAUAUACAAAGACGAGAGUCAGAGUAGAAGGCCUAGGAC [salish99-ss1-155],49.6 nM
18,AAUAUAUUAAGUGAGGAUAUCGAGGAAAAAACAUGAGGAUCACCCAUGUGGGAAACAUGGUAGGGUGAGAAGGCACUUAAUAUAU [Samwise Clockwise 24 - Jieux - Same State 2],572 nM
19,AGAAAGAAAAGAGAGGAUAUCUAAAAGAAAACAUGAGGAUCACCCAUGUAAAAGAAAAGAAAAUGGGAGAAGGCUCAUGAGAAAG [JL Skelter Mod 7 In the Red],59.7 nM
20,GAGGACCUAGGAUAGGAUAUGUGAAUAAUUACAUGAGGAUCACCCAUGUCCAUUUAUAUGGGAACAUAGAAGGGUUUUGGUUAUC [SameState2 Malc#39],180 nM
21,AACCAACAUGAGGAUCACCCAUGUCAACCCAAGGCAGGAUAUGCGAGAAUAACAAUGGGAGCAGAAGGGCCGACCU [ss1-3],53.4 nM

# From the supplement of paper PMC9170038
